A word on the koff: it is a measure of how fast the partners let go of each other. By Kd is commonly meant the free concentration of one partner at which half of the binding sites on the other are occupied at equilibrium, for simple one-to-one binding. The term kon denotes a measure of how fast the partners come together.

For one molecule, koff, Kd and kon results are on record in patent US20220119534A1 (DRAGONFLY THERAPEUTICS, published 2022).

The target in experiment [1] is T1, Human CLEC12A-His (recombinant, K244 WT) (human, UniProt Q5QGZ9 65-265).
T1 construct: Made in house (Dragonfly Tx); also called hCLEC12A; hCLEC12A-His; not shown: His tag
T1 sequence: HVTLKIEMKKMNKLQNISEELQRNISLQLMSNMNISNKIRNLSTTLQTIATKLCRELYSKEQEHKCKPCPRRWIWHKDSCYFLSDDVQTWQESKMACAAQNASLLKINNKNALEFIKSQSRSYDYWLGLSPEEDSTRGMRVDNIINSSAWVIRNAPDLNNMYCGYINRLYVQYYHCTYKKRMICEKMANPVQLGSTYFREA
As to the kind of experiment: SPR, two-state fit (kd1); control sample. Background: Surface plasmon resonance follows binding to a sensor surface in real time, without labels.

For experiment [2], the target named is T1, Human CLEC12A-His (recombinant, K244 WT). Nature of the experiment: SPR, two-state fit; after pH 5.0, 40C, 2 wks.
Description: (§1) Briefly, human Fc specific antibodies were covalently immobilized at a density ˜8000-10000 resonance units (RU) on carboxy methyl dextran matrix of a CM5 biosensor chip via amine-coupling chemistry to create an anti-hFc IgG chip. […] Association was monitored for 300 seconds and dissociation was monitored for 600 seconds. Surfaces were regenerated between cycles with three pulses of 10 mM glycine-HCl, pH 1.7 injected for 20 seconds at 100 μl/min. HBS-EP+ (1×) with 0.1 mg/ml BSA was used as running buffer throughout the experiment. Experiments were performed at physiological temperature of 37° C. To obtain kinetic rate constants and overall binding affinity, double-referenced data were fit to a two-state kinetic model using Biacore 8K Insight Evaluation software (Cytiva).
Experiment [3] addresses T2, De-sialylated human CLEC12A (human, UniProt Q5QGZ9 65-265, treated with neuraminidase (terminal sialic acids removed)).
T2 construct: Same recombinant antigen as m2 after neuraminidase; also called De-sialylated CLEC12A
T2 sequence: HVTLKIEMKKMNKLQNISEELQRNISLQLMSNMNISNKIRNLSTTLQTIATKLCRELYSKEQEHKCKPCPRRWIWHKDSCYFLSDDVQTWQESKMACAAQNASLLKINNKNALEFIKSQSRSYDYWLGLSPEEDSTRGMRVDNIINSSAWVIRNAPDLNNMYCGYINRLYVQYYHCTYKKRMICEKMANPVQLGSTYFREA
Nature of the experiment: SPR, two-state fit.
Description: as §1

For experiment [4], the target named is T3, De-glycosylated human CLEC12A (human, UniProt Q5QGZ9 65-265, treated with PNGaseF (N-linked glycans removed)).
T3 construct: Same recombinant antigen as m2 after PNGaseF; also called De-glycosylated CLEC12A
T3 sequence: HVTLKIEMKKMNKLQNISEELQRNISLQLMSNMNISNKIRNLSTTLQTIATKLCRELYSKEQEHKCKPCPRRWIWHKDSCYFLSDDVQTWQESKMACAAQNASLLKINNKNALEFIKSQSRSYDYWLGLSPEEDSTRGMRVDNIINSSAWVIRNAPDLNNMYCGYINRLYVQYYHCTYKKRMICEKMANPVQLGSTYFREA
Nature of the experiment: SPR, two-state fit.
Description: as §1

For experiment [5], the target named is T1, Human CLEC12A-His (recombinant, K244 WT). As to the kind of experiment: SPR, two-state fit; control sample.
Description: as §1
A further experiment addresses T4, Human CLEC12A-K244Q-His (human, UniProt Q5QGZ9 65-265).
T4 construct: also called hCLEC12A (Q244); CLEC12A (Q244); not shown: His tag
T4 chain: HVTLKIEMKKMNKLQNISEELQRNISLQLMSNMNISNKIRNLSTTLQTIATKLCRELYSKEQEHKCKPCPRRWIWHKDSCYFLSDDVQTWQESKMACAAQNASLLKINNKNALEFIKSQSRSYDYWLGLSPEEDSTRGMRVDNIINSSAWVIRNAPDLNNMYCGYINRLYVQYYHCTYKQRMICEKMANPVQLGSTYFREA
Nature of the experiment: SPR, two-state fit (ka1).

Experiment [6] concerns the target T1, Human CLEC12A-His (recombinant, K244 WT). Nature of the experiment: SPR, two-state fit (ka1).
Description: as §1

Description for Human CLEC12A-K244Q-His: as §1

B1: AB0089 TriNKET (bispecific antibody, human IgG1, kappa)
chain: QLQLQESGPGLVKPSETLSLTCTVSGFSLTNYGLHWIRQPPGKCLEWIGVIWVGGATDYNPSLKSRVTISVDTSKNQFSLKLSSVQAADTAVYYCAKGDYGDTLDYWGQGTLVTVSSGGGGSGGGGSGGGGSGGGGSDIQMTQSPSSLSASVGDRVTITCHASQNINFWLSWYQQKPGKAPKLLIYEASNLHTGVPSRFSGSGSGTDFTLTISSLQPEDFATYYCQQSHSYPLTFGCGTKLEIKGSDKTHTCPPCPAPELLGGPSVFLFPPKPKDTLMISRTPEVTCVVVDVSHEDPEVKFNWYVDGVEVHNAKTKPREEQYNSTYRVVSVLTVLHQDWLNGKEYKCKVSNKALPAPIEKTISKAKGQPREPRVYTLPPCRDELTKNQVSLTCLVKGFYPSDIAVEWESNGQPENNYKTTPPVLVSDGSFTLYSKLTVDKSRWQQGNVFSCSVMHEALHNHYTQKSLSLSPG
heavy: EVQLVESGGGLVKPGGSLRLSCAASGFTFSSYSMNWVRQAPGKGLEWVSSISSSSSYIYYADSVKGRFTISRDNAKNSLYLQMNSLRAEDTAVYYCARGAPIGAAAGWFDPWGQGTLVTVSSASTKGPSVFPLAPSSKSTSGGTAALGCLVKDYFPEPVTVSWNSGALTSGVHTFPAVLQSSGLYSLSSVVTVPSSSLGTQTYICNVNHKPSNTKVDKKVEPKSCDKTHTCPPCPAPELLGGPSVFLFPPKPKDTLMISRTPEVTCVVVDVSHEDPEVKFNWYVDGVEVHNAKTKPREEQYNSTYRVVSVLTVLHQDWLNGKEYKCKVSNKALPAPIEKTISKAKGQPREPQVCTLPPSRDELTENQVSLTCLVKGFYPSDIAVEWESNGQPENNYKTTPPVLDSDGSFFLYSWLTVDKSRWQQGNVFSCSVMHEALHNHYTQKSLSLSPG
light: DIQMTQSPSSVSASVGDRVTITCRASQGISSWLAWYQQKPGKAPKLLIYAASSLQSGVPSRFSGSGSGTDFTLTISSLQPEDFATYYCQQGVSFPRTFGGGTKVEIKRTVAAPSVFIFPPSDEQLKSGTASVVCLLNNFYPREAKVQWKVDNALQSGNSQESVTEQDSKDSTYSLSSTLTLSKADYEKHKVYACEVTHQGLSSPVTKSFNRGEC
notes: F3' format heterodimer of three chains; human IgG1 Fc with EW-RVT and Y349C/S354C mutations; also called AB0089 Lot AB0089-002; CLEC12A TriNKET AB0089
As for B1, the off-rate (koff) in experiment [1] amounted to 0.042 s⁻¹. Besides, the Kd in experiment [2] stood at 1 nM; in experiment [3] it was 0.35 nM; in experiment [4], 0.09 nM; in experiment [5], 0.9 nM. Moreover, the figures for the kon (in the experiment with Human CLEC12A-K244Q-His; in experiment [6]) were 9.7e+06 M⁻¹ s⁻¹ and 1.63e+07 M⁻¹ s⁻¹, respectively.
